Patent publication US20210179717A1 (ALBERT LUDWIGS UNIVERSIT T FREIBURG, published 2021)

Key:
peptide M7 (EQLKKSKTL) = biological target: T1, peptide M7 (EQLKKSKTL) (human); assay: solid phase binding assay, immobilized peptide M7
T1 construct: Immobilised peptide from the human Mac-1 αM I-domain
T1 peptide: EQLKKSKTL

[1] = biological target: human Mac-1 (αMβ2, CD11b/CD18), native, non-activated (WT) (human, UniProt P11215 17-1152; P05107 23-769); assay: western blot of CHO cells over-expressing Mac-1
[2] = biological target: T2, scrambled peptide sM7 (KLSLEKQTK); assay: solid phase binding (ELISA) with immobilized peptides
T2 construct: Scrambled control of M7
T2 peptide: KLSLEKQTK
Method: (§1) Specific binding was calculated by subtraction of binding of mouse IgG to the peptides.

peptide M8 (EEFRIHFT) = biological target: T3, peptide M8 (EEFRIHFT) (human); assay: as above
T3 peptide: EEFRIHFT
Method: as §1

binding result (peptide M7 (EQLKKSKTL)): binds | binding result [1]: binds | binding result [2]: no binding | binding result (peptide M8 (EEFRIHFT)): no binding
B1: anti-M7 (mouse monoclonal antibody, clone RC3, mouse IgG2bκ) (antibody, V domains shown)
VH: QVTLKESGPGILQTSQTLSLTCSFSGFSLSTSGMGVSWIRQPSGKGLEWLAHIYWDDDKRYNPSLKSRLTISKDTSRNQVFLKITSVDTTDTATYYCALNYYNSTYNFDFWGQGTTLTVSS
VL: DIQMTQSPSSLSASLGERVSLTCRASQEISGYLSWHQQKPDGTIKRLLYSTSTLDSGVPKRFSGSRSGSDYSLTISSLESEDFADYYCLQYAISPPTFGGGTKLEIK
notes: Coupled to Alexa Fluor 647 for flow cytometry; also called anti-M7-Alexa 647
